Measured values from the supplement of paper PMC9170038.

Tested on: MS2 coat protein
Assay: apparent KD of MS2 coat protein; designed switch direction (-1 OFF switch, 1 ON switch): -1; higher = weaker reporter binding
Procedure, shortened: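 Apparent KD, taken as the median over clusters for each design, was obtained by curve-fitting normalised cluster fluorescence. Designed RNA switches had been transcribed on Illumina chips by stalled E. coli RNA polymerase and titrated with SNAP-549-labelled MS2 coat protein, doubling from 0.7 or 1.5 nM to 3 µM.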

[1] = input ligand: microRNA oligo, concentration not stated
[2] = Eterna round: R95, input ligand: FMN 200 uM
[3] = Eterna round: R95, input ligand: microRNA oligo, concentration not stated
[4] = Eterna round: R95, input ligand: none

Row | Sequence | apparent KD of MS2 coat protein (input ligand: FMN 200 uM) [nM] | apparent KD of MS2 coat protein [1] [nM] | apparent KD of MS2 coat protein (input ligand: none) [nM] | apparent KD of MS2 coat protein [2] [nM] | apparent KD of MS2 coat protein [3] [nM] | apparent KD of MS2 coat protein [4] [nM]
1 | GCUUGGCGAGGAUAUACAUGAGGAUCACCCAUGUGAGAGAAUAAAGUGAGGAAGAAAAGUAGAAGGCGCUGAGG [Mat - Exclusion 3 - Mod of Salish D58] (Eterna round: R96, puzzle: Exclusion 3) | 181 | 45 | 54.5 | – | – | –
2 | GCUUGGCGAGGAUAUACAUGAGGAUCACCCAUGUGAGAGAAUAAAGUGAGGAAGAAAAGUAGAAGGCGCUGAGG [Mat - Exclusion 3 - Mod of Salish D58] (puzzle: Exclusion 3) | – | – | – | 199 | 40.4 | 40.4
3 | GCUUGUGUUGAGGAUAUGCGCCGGCUCGCUGGCGCAGAAGGCGGCACAUGAGGAUCACCCAUGUCAGUUCGCGG [salish99_ex6_r004_009] (Eterna round: R97, puzzle: Exclusion 6) | 321 | – | 93.8 | – | – | –
4 | GGAAAGGUAGGAUAUACGAAGAAAAAGGGUAGAAUAAUAACACAUGAGGAUCACCCAUGUAGAAGGACCAAAGG [Mat - Exclusion 2 - Mod of my Tesla design - D6] (puzzle: Exclusion 2) | – | – | – | 40.5 | 23.1 | 19.3
5 | GGAAGAGAGUUAGGAUAUAUAAGAAGAAUGUGGGUAGAAGGAACGAAACAUGAGGAUCACCCAUGUCCCAUGUUGAGGAGGAGG (Eterna round: R96, puzzle: Exclusion NG 1) | 1530 | 349 | 560 | – | – | –
6 | GGAAUACAUGAGGAUCACCCAUGUAAGGAUAUGCUGAAUAUUACGGAAUAAACGUGCAGCAGAAGGUACAAAGG [Mat - Mod of my Eli Mod D47] (puzzle: Exclusion 1) | – | – | – | 105 | 83.4 | 125
7 | GGACAUAAAGUCAGGAUAUUAAGGCGAACAAGCGAUGAGAAGGGACAUGAGGAUCACCCAUGUGAUUCGCAUCA [Raerce] (Eterna round: R97, puzzle: Brourd's mod of Exclusion 4) | 32.7 | – | 24.1 | – | – | –
8 | GGACCACAUGAGGAUCACCCAUGUCAGGAUAUGACGGCGUCGGCGAAAGCGGAGGCGGUCAGAAGGGACGGAAA [AK-MS2ROC-r4-exclusion1-9.0] (Eterna round: R97, puzzle: Exclusion 1) | 84.6 | – | 34 | – | – | –
9 | GGAGCGAUUCUCUUAGUUAACAUGAGGAUCACCCAUGUGUACAAGCUCUUAUUUUGCUCGUCUUACCGAGAGUUGCC [Tienve] (puzzle: Sensor v3, turn-off variant 1) | – | – | – | 22.6 | 74.3 | 24.7
10 | GGAUAAAAGUCAGGAUAUACGUAUCGCUAGCGAGUAGAAGGGACACAUGAGGAUCACCCAUGUGAGUUCUCAAUAAGAAACACG [Prohibition 61 - Jieux - Exclusion NG 1] (Eterna round: R96, puzzle: Exclusion NG 1) | 45.5 | 16.3 | 19.5 | – | – | –
11 | GGAUAUAACGUAGGAUAUCAGAGAAACAGACGAUGAGAAGGACGACAUGAGGAUCACCCAUGUGAUCUAUCAAUAUUAUACAUG [Prohibition 98 - Jieux - Exclusion NG 1] (Eterna round: R96, puzzle: Exclusion NG 1) | 874 | 434 | 712 | – | – | –
12 | GGAUAUAAUGUGAGGAUAUCUGCGAUACCUAGUCGAGAGAAGGCACAUGAGGAUCACCCAUGUGAGGACCUCGU [Eternabot (L1) Solution 98] (Eterna round: R97, puzzle: Brourd's mod of Exclusion 4) | 29.6 | – | 19.4 | – | – | –
13 | GGAUCGAAAGUGAGGAUAUACCUAUGGAAACAUAGGUAGAAGGCACAUGAGGAUCACCCAUGUUCCUACGGUCC [Mat - Exclusion 4 - Eli Mod - D10] (Eterna round: R97, puzzle: Brourd's mod of Exclusion 4) | 113 | – | 20 | – | – | –
14 | GGAUCGAGUGUGAGGAUAUACCUAUGGAAACAUAGGUAGAAGGCACAUGAGGAUCACCCAUGUUCCUACGGUCC [Mat - Exclusion 4 - Eli Mod - D8] (Eterna round: R97, puzzle: Brourd's mod of Exclusion 4) | 658 | – | 75.5 | – | – | –
15 | GGAUCGUAUGUCAGGAUAUACCACUGGAUACAGUGGUAGAAGGGACAUGAGGAUCACCCAUGUCCUAUCGAUCC [Fiskers BMX 4 - 51] (puzzle: Brourd's mod of Exclusion 4) | – | – | – | – | 12 | –
16 | GGAUCGUAUGUCAGGAUAUACCACUGGAUACAGUGGUAGAAGGGACAUGAGGAUCACCCAUGUUCUAUCGAUCC [Fiskers BMX 4 - 53] (puzzle: Brourd's mod of Exclusion 4) | – | – | – | – | 12.5 | –
17 | GGAUCGUAUGUGAGGAUAUACCACUGGAUACAGUGGUAGAAGGCACAUGAGGAUCACCCAUGUCCUAUCGAUCC [Fiskers BMX 4 - 54] (puzzle: Brourd's mod of Exclusion 4) | – | – | – | – | 132 | –
18 | GGAUCUACUGAGGAUAUUAUAUCACCCGACUGAUAAGAAGGCAGUACAUGAGGAUCACCCAUGUGGGUAGCCAU [Polaris8] (Eterna round: R97, puzzle: Exclusion 6) | 64.3 | – | 34.8 | – | – | –
19 | GGAUGUCUAAAGGAUAUGCUGGAUUAAUAUCUGGCAGAAGGUUGGACAUGAGGAUCACCCAUGUAAAUUCUGCC [Omei Ex6 A11] (Eterna round: R97, puzzle: Exclusion 6) | 24.6 | – | 17.3 | – | – | –
20 | GGAUUGUCAGGAUAUCUUAUACUUCAUAAGUGAGGAUAAAUAGAGAAGGGACAUGAGGAUCACCCAUGUAAUAA [Exclusion 4 S1] (Eterna round: R97, puzzle: Exclusion 4) | 152 | – | 36.8 | – | – | –
21 | GGCAAACAUGAGGAUCACCCAUGUCAGGAUAUUAGGCGAUCGUCGAAAGACGAUAGCCUGAGAAGGGACAUGCC [Eli x1 4.16] (Eterna round: R97, puzzle: Exclusion 1) | 238 | – | 103 | – | – | –
22 | GGCAGACAUGAGGAUCACCCAUGUCAGGAUAUGGUGCGAUCGUCGAUAGACGAUAGCACCAGAAGGGACAUGCC [Mat - Exclusion 1 - Eli Mod - D3] (Eterna round: R97, puzzle: Exclusion 1) | 39.7 | – | 21.4 | – | – | –
23 | GGCAGUCGAGGAUAUACAAUCGUGCUUCGGCACGUAAGAUCACAUGAGGAUCACCCAUGUAGAAGGCGACUGCC [E2/1-A1] (Eterna round: R97, puzzle: Exclusion 2) | 749 | – | 53.2 | – | – | –
